From patent publication US20180177842A1 (CANIMGUIDE THERAPEUTICS, published 2018)
Ends that are not written are not given here.

T1: His-tagged P3028 (human, also: His tag, length and end not given here)
T1 construct: in solution at 0.5 ug/mL, detected with mouse anti-His antibody and rabbit anti-mouse peroxidase (rampo); also called PGE73; His-tag-P3028; not shown: His tag
T1 peptide: VFDEFKPLVEEPQNLIK


These binders were tested against Artificial Cell Surface (ACS): biotinylated cell surface proteins of human PBMCs bound to a streptavidin column (human) (assay: adsorption on ACS column, MALDI-TOF ms).

Point of comparison: KVPQVSTPTLVEVSR [Trypsin-generated albumin fragment, SEQ ID NO 195], Percent Absorbed 64%. Against it:
- KYLYEIAR [Trypsin-generated albumin fragment, SEQ ID NO 194] — higher, 71%
- VFDEFKPLVEEPQNLIK [Trypsin-generated albumin fragment, SEQ ID NO 196] — lower, 60%
- VPQVSTPTLVEVSR [Trypsin-generated albumin fragment, SEQ ID NO 197] — lower, 59%
- RPCFSALEVDETYVPK [Trypsin-generated albumin fragment, SEQ ID NO 198] — lower, 42%
- FQNALLVR [Trypsin-generated albumin fragment, SEQ ID NO 199] — lower, 41%
- SLHTLFGDK [Trypsin-generated albumin fragment, SEQ ID NO 200] — lower, 36%
- LKECCEKPLLEK [Trypsin-generated albumin fragment, SEQ ID NO 201] — lower, 36%
- LCTVATLR [Trypsin-generated albumin fragment, SEQ ID NO 202] — lower, 35%
- YLYEIAR [Trypsin-generated albumin fragment, SEQ ID NO 203] — lower, 34%
- CCAAADPHECYAK [Trypsin-generated albumin fragment, SEQ ID NO 204] — lower, 32%
- AAFTECCQAADK [Trypsin-generated albumin fragment, SEQ ID NO 205] — lower, 29%
- CCTESLVNR [Trypsin-generated albumin fragment, SEQ ID NO 206] — lower, 26%
- QEPERNECFLQHK (not fully specified) [Trypsin-generated albumin fragment, SEQ ID NO 207] — lower, 25%
- AVMDDFAAFVEK [Trypsin-generated albumin fragment, SEQ ID NO 208] — lower, 23%
- NECFLQHK [Trypsin-generated albumin fragment, SEQ ID NO 209] — lower, 22%
- QEPERNECFLQHK (not fully specified) [Trypsin-generated albumin fragment, SEQ ID NO 211] — lower, 18%
- VHTECCHGDLLECADDR [Trypsin-generated albumin fragment, SEQ ID NO 212] — lower, 13%
- FKDLGEENFK [Trypsin-generated albumin fragment, SEQ ID NO 213] — lower, 8%
- YICENQDSISSK [Trypsin-generated albumin fragment, SEQ ID NO 214] — lower, 3%
- LDELRDEGK [Trypsin-generated albumin fragment, SEQ ID NO 215] — lower, 2%
- DDNPNLPR [Trypsin-generated albumin fragment, SEQ ID NO 216] — lower, 1%
- DHVKLVNEVTEFAKTCVA [Asp-N-generated albumin fragment, SEQ ID NO 217] — higher, 100%
- DDKETCFAEEGKKLVAASQAALGL [Asp-N-generated albumin fragment, SEQ ID NO 218] — higher, 100%
- DRVTKCCTESLVNRRPCFSALEV [Asp-N-generated albumin fragment, SEQ ID NO 219] — higher, 87%
- DETYVPKEFNAETFTHA [Asp-N-generated albumin fragment, SEQ ID NO 220] — higher, 86%
- DSISSKLKECCEKPLLEKSHCIAEVEN [Asp-N-generated albumin fragment, SEQ ID NO 221] — higher, 65%
- DKLCTVATLRETYGEM [Asp-N-generated albumin fragment, SEQ ID NO 222] — higher, 65%
- YSVVLLLRLAKTYETTLEKCCAAADPHECYAKVF [Asp-N-generated albumin fragment, SEQ ID NO 223] — higher, 100%
- KLCTVATLRETYGEMADCCAKQEPERNECFLQHK [Asp-N-generated albumin fragment, SEQ ID NO 224] — higher, 100%
- ICTLSEKERQIKKQTALVELVKHKPKATKEQLKAVM [Asp-N-generated albumin fragment, SEQ ID NO 225] — higher, 100%
- LAKYICENQDSISSKLKECCEKPLLEKHCIAEVEN [Asp-N-generated albumin fragment, SEQ ID NO 226] — higher, 100%
- VFLGMFLYEYARRHPDYSVVLLLRLAKTYETTLEKCCAAA [Asp-N-generated albumin fragment, SEQ ID NO 227] — higher, 100%
- LGEENFKALVLIAFAQYLQQCPFEDHVKLVNEVTEFAKTCVA [Asp-N-generated albumin fragment, SEQ ID NO 228] — higher, 100%
- RVTKCCTESLVNRRPCFSALEVDETYVPKEFNAETFTFHA [Asp-N-generated albumin fragment, SEQ ID NO 229] — higher, 100%
- YLSVVLNQLCVLHEKTPVSDRVTKCCCTESLVNRRPFSALEV [Asp-N-generated albumin fragment, SEQ ID NO 230] — lower, 37%

Each binder was assayed against Artificial Cell Surface (ACS) (assay: ACS column adsorption of trypsin-digested dHSA, MALDI-TOF MS).

Point of comparison: QEPERNECFLQHK (not fully specified) [… (trypsin-generated albumin fragment, SEQ ID NO: 207)], Percent Absorbed 25%. Against it:
- KYLYEIAR [KYLYEIAR (trypsin-generated albumin fragment, SEQ ID NO: 194)] — higher, 71%
- YLYEIAR [YLYEIAR (trypsin-generated albumin fragment, SEQ ID NO: 203)] — higher, 34%
- CCAAADPHECYAK [… (trypsin-generated albumin fragment, SEQ ID NO: 204)] — higher, 32%
- AAFTECCQAADK [… (trypsin-generated albumin fragment, SEQ ID NO: 205)] — higher, 29%
- CCTESLVNR [… (trypsin-generated albumin fragment, SEQ ID NO: 206)] — higher, 26%
- AVMDDFAAFVEK [… (trypsin-generated albumin fragment, SEQ ID NO: 208)] — lower, 23%
- NECFLQHK [NECFLQHK (trypsin-generated albumin fragment, SEQ ID NO: 209)] — lower, 22%

Biological target: T1, His-tagged P3028
Assay: PEPSCAN ELISA, peptide on chip;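 note: binding detected by peroxidase ELISA with ABTS, OD405 colour imaged by CCD camera before and after staining, raw OD405 reported as rampo units, air-bubble wells scored 0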
Description: After washing, the peroxidase substrate 2,2′-azine-di-3-ethylbenzthiazoline sulfonate (ABTS) and 2 μL of 3% H2O2 were added. The binding capacity of the mAb was measured as a color development at 405 nm (optical density, OD405). The color development was quantified with a charge-coupled device (CCD)—camera and an image processing system.
The OD405-values obtained by a CCD-camera was considered as raw data values (“rampo values,” “rampo units,” or “rampo scores”). […] First the CCD-camera made a picture of the card before peroxidase coloring and then again a picture after the peroxidase coloring. […] These values were copied into an excel file and labeled as a raw data file. […] Sometimes a well can contain an air-bubble resulting in a false-positive value. If manual inspection of the cards detect an air-bubble the value are set to 0 for well.

Point of comparison: KKLDTFFVKLSLFSER [SEQ ID NO 384], “RAMPO Score” value 369 rampo units. Against it:
- KKLDTFFVKLSLQTER [SEQ ID NO 370] — higher, 1140 rampo units
- KKLDTFFVKLSLRTER [SEQ ID NO 371] — higher, 502 rampo units
- KKLDTFFVKLSLSTER [SEQ ID NO 372] — higher, 635 rampo units
- KKLDTFFVKLSLTTER [SEQ ID NO 373] — higher, 494 rampo units
- KKLDTFFVKLSLVTER [SEQ ID NO 374] — higher, 446 rampo units
- KKLDTFFVKLSLWTER [SEQ ID NO 375] — higher, 430 rampo units
- KKLDTFFVKLSLFFER [SEQ ID NO 376] — lower, 348 rampo units
- KKLDTFFVKLSLFGER [SEQ ID NO 377] — lower, 343 rampo units
- KKLDTFFVKLSLFHER [SEQ ID NO 378] — higher, 463 rampo units
- KKLDTFFVKLSLFIER [SEQ ID NO 379] — higher, 375 rampo units
- KKLDTFFVKLSLFLER [SEQ ID NO 380] — lower, 360 rampo units
- KKLDTFFVKLSLFMER [SEQ ID NO 381] — higher, 501 rampo units
- KKLDTFFVKLSLFNER [SEQ ID NO 382] — higher, 599 rampo units
- KKLDTFFVKLSLFPER [SEQ ID NO 383] — higher, 551 rampo units
- KKLDTFFVKLSLFVER [SEQ ID NO 385] — higher, 380 rampo units
- KKLDTFFVKLSLFWER [SEQ ID NO 386] — higher, 374 rampo units
- KKLDTFFVKLSLFTDR [SEQ ID NO 387] — higher, 404 rampo units
- KKLDTFFVKLSLFTEF [SEQ ID NO 388] — lower, 297 rampo units
- KKLDTFFVKLSLFTEK [SEQ ID NO 389] — lower, 291 rampo units
- KKLDTFFVKLSLFTEN [SEQ ID NO 390] — lower, 311 rampo units
- KKLDTFFVKLSLFTET [SEQ ID NO 392] — lower, 292 rampo units
- KKLDTFFVKLSLFTEY [SEQ ID NO 393] — lower, 311 rampo units
- KKLDTFFVKLSLFTER [SEQ ID NO 391] — lower, 260 rampo units
